Where “and” joins values, the source holds several entries; their conditions need not be identical. Equal entries are not always repeated. Entries after “also recorded” stand apart in the source; their conditions may differ.

One molecule from patent US20040170601A1, “Method of improving the growth performance of an animal” (priority 2001, published 2004) can be followed below.

In test [1] the test system is eosinophils. Briefly: Example 2: high dose and multiple dose IL-5 on eosinophil numbers in blood. Format: in vivo, pigs. As to conditions: rec.IL-5 IM 100 μg x1/x2/x4 or 500 μg x1. The method, then:
This trial compared 2 doses of recombinant IL-5 (100 μg/500 μg) and compared multiple injections (x1/x2/x4) of one dose (100 μg) to elevate eosinophil numbers.
The experiment was conducted using medicated feed Barastoc EziWean 150 then Bunge Grolean CREEP ad libitum in an experimental environment (PC2 containment facilities). Blood total and differential counts were performed using a CellDyn 3700 haematology machine.
8 hrs later, bleed for haematology

Test [2] concerns haemorrhagic E. coli. In words: Example 6: haemorrhagic E. coli challenge of weaner pigs. The test is classed as in vivo. On the set-up: decrease in faecal shedding (total faecal culture scores) compared to saline treated controls / reduction in clinical signs compared to saline controls / reduction in E. coli culture scores at post-mortem compared to saline controls / reduction of bacterial load in the small intestine (foregut) compared with saline controls: concentration or dose not given beside the values. The method, then:
Male weaner pigs, with a mean weight of 5.4 kg were allocated to groups of 8, with the mean weight being equalised between groups. Pigs were housed in group pens. Pigs were provided with pelleted feed and water ad libitum.
Pigs were treated with cytokines or the antibiotic, Apralan, and challenged with E. coli according to the schedule outlined in FIG. 42. E. coli were delivered orally in an 8 ml dose containing 10^8 cfu/ml. Blood was sampled from pigs by venipuncture at −2 days, day 0, and +6 days from initial challenge with E. coli as outlined in FIG. 42. Blood was assayed for immunological parameters as previously described. Pigs were weighed at day −2 and at the end of the trial on day 7.
Faecal samples were taken from each pig daily from day 2 to day 6 after challenge; these samples were cultured on sheep blood agar to quantify E. coli load. The condition of faeces on each day of challenge was noted as normal, wet or diarrhoea, as an indication of clinical signs.
At the conclusion of the experiment, pigs were euthanased and samples were taken from different areas in the gastro-intestinal tract, including the small intestine (25%, 50% and 75% along the length of the small intestine), the caecum and colon, and from the faeces. These post-mortem samples were also plated out on sheep blood agar to quantify E. coli load. Growth on sheep blood agar was scored from 0 to 5 (where 0 was no growth, 1 signified growth in the primary inoculum, 2 signified growth in the first streak, 3 signified growth in the 2nd streak, 4 signified growth in the 3rd streak, and 5 signified growth of E. coli in the final streak), and group means and standard errors were calculated.

The subject of test [3] is Brachyspira (Serpulina) hyodysenteriae. Briefly: Example 7: swine dysentery challenge, IL-5 prophylactic. Format: in vivo, pigs. On the set-up: reduction in the number of spirochaetes compared to saline treated pigs: concentration or dose not given beside the values. The text has this:
One aim of this example was to determine whether IL-5 could improve the health of pigs infected with an enteric inflammatory pathogen causing swine dysentery, Brachyspira (Serpulina) hyodysenteriae. A further aim was to determine whether IL-5 could improve the growth rate of pigs under conditions of challenge with swine dysentery.
Male pigs with a mean starting weight of 6.5 kg, were allocated to treatment groups consisting of eight pigs (Table 6). Pigs were housed in group pens, with each pen containing a replicate from each of the treatment groups. One group of 8 pigs was housed in a separate room and left uninfected to act as untreated controls. Pigs were provided with pelleted feed and water ad libitum.
Prior to swine dysentery challenge, pigs were treated with recombinant IL-5 or saline, as described in Table 6. Cytokines and the antibiotic, Lincomycin, were delivered by intramuscular injection at intervals outlined in Table 7. Pigs were infected with Brachyspira hyodysenteriae at day 0, day 1 and day 2, given as an oral bolus of 120 ml of spirochaete culture in log phase of growth, containing approximately […].
Faecal swabs and blood samples were taken from each pig at intervals described in Table 7. Faecal swabs were cultured for the presence of spirochaetes. Blood samples were assayed for immunological parameters as described in example 1 above. Pigs were weighed at weekly intervals throughout the experiment, which was terminated by euthanasia on days 19 and 20 after the initial challenge. At post mortem swabs from areas of the hindgut were cultured for the presence of spirochaetes, and the gross pathological condition of the gastro-intestinal tissue noted.

In test [4] the test system is eosinophils. In words: Example 11: IL-5 and IL-3 on eosinophil production. Format: in vivo, pigs. An excerpt: The aim of this example was to determine if the effects of IL-3 and IL-5 act synergistically to increase eosinophil levels and antibody production.
As IL-3 stimulates the proliferation of pre-active B cells prior to the effects of IL-5, it was believed that administration of both IL-3 and IL-5 would have a greater impact on eosinophil production than the administration of either cytokine alone. An experiment was undertaken using pigs raised under clean PC2 conditions with raised floors. There were 5 treatments with 6 pigs per treatment. Pigs were 5-6 weeks of age. The animals were injected intramuscularly on days 0, 3, 7 and 10 of the experiment with either recombinant cytokines or saline. The treatments include IL-5 and IL-3 alone and given either together at the same time at different sites or to the same animal but with IL-3 being administered one week before IL-5. The treatments were as follows:
Group 3—100 μg IL-3+100 μg IL-5 (separate sites)
The pigs were bled 4 times per week for the first 2 weeks and once per week for the following 2 weeks and haematology measured using a CellDyn machine. Sera were collected also each week and tested for antibody levels.

B1: interleukin 5 (protein, UniProt Q9MYM5 22-134, looked up)
Interleukin-5: VENTMNRLVAETLTLLSIHRTLLIGDGNLMISTPVHTNHQLCIEEVFQGIDTLKNQTARGDAVEKLFQNLSLIKEYIDRQKKNCGGERWRVTQFLDYLQVFLGVINTEWTMES
notes: recombinant porcine IL-5 protein expressed in E. coli; + / − = with / without antibiotic medicated feed and water, +p = weaner period only
Regarding B1, in test [1], the “average percentage eosinophil of WBC over 11 days (area under the curve)” value was “increased eosinophil numbers in blood and higher dose and multiple doses were statistically significant and 4 injections of 100 μg (Days 0, 1, 4, 7) being more effective than a single injection of a higher single dose (500 μg)”. For the same molecule, the “clinical signs (wet faeces or diarrhoea)” value in test [2] (5 days after challenge) was “fewer recorded cases of wet faeces and diarrhoea than saline controls or Apralan treatment”. In test [2] (day 2 to day 6 after challenge), the “E. coli shedding in faeces (faecal culture)” value was “decreased E. coli shedding in faeces”. In addition, the “decrease in faecal shedding (total faecal culture scores) compared to saline treated controls” value in test [2] (entire challenge period) is 43%. Moreover, the “reduction in E. coli culture scores at post-mortem compared to saline controls” value in test [2] (gastro-intestinal tract total) was found to be 15%. In test [2] (pig, in vivo), the “appetite (daily feed intake per pig) during E. coli challenge” value is on record as “improved appetite compared to saline treated pigs”, the “bacterial load in areas of the gastro-intestinal tract at post-mortem” value is reported as “reduced bacterial load in most areas of the gastro-intestinal tract”, the “days after challenge with bacterial shedding significantly less than saline treated controls” value is reported as 3/5 and the “group mean total E. coli culture score at post-mortem (out of a possible 30)” value was “less than 15”. For the same molecule, the “reduction in clinical signs compared to saline controls” value in test [2] (pig, in vivo) is on record as 64%. For the same molecule, the “reduction of bacterial load in the small intestine (foregut) compared with saline controls” value in test [2] (post-mortem) is reported as 36%. Also, the “spirochaete shedding in faeces (faecal culture)” value in test [3] (after challenge) was “decreasing levels of spirochaete shedding by day 14 after challenge”. Also, the “reduction in the number of spirochaetes compared to saline treated pigs” value (“reduction in the number of spirochaetes” for short) in test [3] (anterior colon, post mortem) is 63%. Also, in test [3] (caecum, post mortem), the “reduction in the number of spirochaetes” value was found to be 60%. Also, the “reduction in the number of spirochaetes” value in test [3] (faecal, post mortem) worked out at 68%. In test [3] (pig, in vivo), the “number of spirochaetes cultured from the hindgut at post mortem” value is recorded as “reduced the number of spirochaetes residing in the gut compared to saline controls; also recorded: comparable to that shown by the Lincocin antibiotic”. The “incidence of clinical signs in faeces (of 8 pigs)” value in test [3] (post mortem) was 3 pigs. Besides, the “reduction in the number of spirochaetes” value in test [3] (posterior colon, post mortem) was 47%. Moreover, the “eosinophil percentage of WBC relative to the original value” in test [4] (after 4 injections) was “approximately 10 times”. Also, the “eosinophils as a percent of white blood cells” value in test [4] (single cytokine 100 μg IM days 0, 3, 7, 10) is on record as “significant increase in eosinophil levels; also recorded: dramatically increased circulating eosinophil cells”.
